Earlier results as cited in patent publication US20190345209.

Test system: BCR-ABL1 zinc finger protein (three-finger ZFP) (synthetic construct)
Settings: CITED (ref 50); p122 prints 78 uM, evidently a typo

GCAGAAGCC (double strand) [BCR-ABL1 9 bp binding site (in Go92, Go66, Go85 promoters)]
Kd: 0.078 nM
